Source: US20260209365A1, “ANTI-COMMON GAMMA CHAIN PROTEINS AND COMPOSITIONS OF MATTER” (SINOMAB BIOSCIENCE LIMITED, priority 2023, published 2026)

B1: SM-05F: anti-γc antibody, full-length chimeric; CDR SEQ ID NO: 84, 86, 88, 92, 94, 96 (antibody, V domains shown)
VH: EVQLQQSGPELVKPGASVKIFCKTSGYTFTEYTMHWVKQSHGESLEWIGGIDPNTGGVTYNQKFKGKATLTADKSSSTAYMELRSLTSEDSAVYYCARRRRYYGYALDYWGQGTSVTVSS
VL: DVLMTQTPLSLPVSLGDQASISCRSSQSIVHNNGNTYLEWYLQKPGQSPKLLIYKVSNRFFGVPDRFSGSGSGTYFTLKISRVEAEDLGVYYCFQGSHVPWTFGGGTKLEIKR

Legend:
Format in all cases: cell-based, human
CD23 expression = assay: qRT-PCR of CD23 expression in Ramos; details: IL-4 10 ng/ml, 24 hours, 33 nM
Description: Genes related to the B cell functions were investigated by quantitative real-time PCR (qRT-PCR). In brief, Ramos cells were starved in serum-free RPMI1640 medium for 24 hours and then treated with 10 ng/ml IL-4 or IL-21 for 24 hours. Total RNA was extracted by RNAzol following manufacturer's protocol. Reverse transcription was performed in 500 ng of total RNA using PrimeScript RT reagent kit and the gene expression was analyzed by quantitative real-time PCR using TB Green Premix Ex Taq in Lightcycler® 480 Real-Time PCR System. Housekeeping gene GAPDH was used for normalization.

[1] = tested on: granzyme and IFNγ secretion; assay: Secretion of granzymes and IFNγ from PBMC culture, ELISA
Description: Activation of T and NK cells in the PBMC culture could be studied by granzyme and IFNγ secretion [Carlin et al., Blood., 2005; 106 (12): 3874-9; Grossman et al., Blood., 2004; 104 (9): 2840-8; Keppel et al., J Immunol., 2015; 194 (4): 1954-1962; Tamang et al., Cytokine., 2006; 36 (3-4): 148-59]. Similar results are obtained in-house that IL-2 and IL-15 but not IL-21 could trigger secretion of granzyme A and IFNγ in PBMC culture (FIG. 15A-B).
Antibodies or ritlecitinib were added into the PBMC culture to investigate their inhibitory effects in the presence of IL-2 or IL-15 treatment.
Releases of cytolytic agents from PBMC culture were further evaluated by ELISA assays.

granzyme A secretion = assay: Granzyme A secretion from KHYG-1, ELISA; details: 3 days, 33 nM
Description: To test the efficacies of anti-γc antibodies, proliferation and granzyme A secretion were chosen as the experimental models. In brief, KHYG-1 was seeded into either 48- or 96-well plates and starved in non-IL-2 supplemented medium overnight. After replenishment with new medium, KHYG-1 was pre-incubated with anti-γc antibodies or ritlecitinib for an hour before the administration of γc cytokines for 3 days. Proliferation rate was determined by the addition of WST-8 reagent while the secretion of granzyme A was estimated by ELISA measurement.

[2] = tested on: cleaved caspase 3 and μ-H2AX; assay: Western blot of cleaved caspase 3 and μ-H2AX in Ramos; details: IL-4 10 ng/ml; 33 nM
Description: Levels of cleaved caspase 3 (apoptotic protein) and μ-H2AX (DNA damage marker) were investigated by western blot in the Ramos B cells treated in the same paradigm. In brief, total proteins were extracted from the Ramos cells in RIPA lysis buffer supplemented with Halt™ Protease and Phosphatase Inhibitor Cocktail. Proteins were denatured and separated through electrophoresis and blotted on the nitrocellulose membrane. The membrane was blocked with 5% nonfat milk diluted in TBST, then incubated with primary antibodies diluted in 5% BSA/TBS T at 4° C. overnight in a rotating wheel. Next day, membrane was washed with PBST and incubated with secondary antibodies diluted in 5% milk/TBST for an hour at RT. Intensities of protein bands were determined using ECL substrate kit in the ChemiDoc Imaging System.

[3] = tested on: IL-15 induced STAT5 phosphorylation; assay: Inhibition of IL-15 induced STAT phosphorylation in KHYG-1 NK cell line, flow cytometry; details: ScFv 10 μg/ml
Text: (§1) Cells were harvested and stained with FITC conjugated anti-pSTAT6, PE conjugated anti-pSTAT3 or APC con jugated anti-pSTAT5 antibodies for flow cytometry analyses. In some embodiments, the purified ScFv could block the IL-4 induced STAT6 phosphorylation in cell culture (e.g., Ramos). In some embodiments, the purified ScFv could block the IL-7 induced STAT5 phosphorylation in cell culture (e.g., HPB-ALL). In some embodiments, the purified ScFv could block the IL-9 induced STAT3 phosphorylation in cell culture (e.g., Jurkat). In some embodiments, the purified ScFv could block the IL-15 induced STAT5 phosphorylation in cell culture (e.g., KHYG-1). In some embodiments, the purified ScFv could block the IL-21 induced STAT3 phosphorylation in cell culture (e.g., Ramos).
(§2) Flow cytometry was employed to measure the percentage of p-STAT expressing cells after cytokine induction and anti-γc ScFv treatment. KHYG-1 (Creative Bioarray, Shirley, NY 11967, USA) was starved in IL-2 free RPMI1640 (ATCC modification, ThermoFisher Scientific, Waltham, MA, USA) with 10% FBS (ThermoFisher Scientific) for 2 days. Ramos, HPB-ALL and Jurkat cell lines were used directly without starvation. Cells were replenished with fresh RPMI1640 medium and pretreated with anti-γc ScFv (10 μg/mL) for an hour. After treatment with TL-4 (10 ng/ml, Sino Biological), IL-7 (50 ng/ml, Sino Biological), IL-9 (50 ng/ml, Sino Biological), IL-15 (10 ng/ml, Sino Biological) or IL-21 (10 ng/ml, Sino Biological) for 15 min, cells were fixed in 4% paraformaldehyde (PFA, Sigma, St. Louis, Missouri, USA) for 10 min, permeabilized in 0.1% Triton X-100 (Sigma) for 10 min and then stained with FITC conjugated anti-pSTAT6, PE conjugated anti-pSTAT3 or APC con jugated anti-pSTAT5 (all diluted in 1:100, Biolegend, San Diego, California, USA) for 30 min at 37° C. Percentage of p-STAT expressing cells was measured by BD FACSLyric™ Clinical Flow Cytometry System (BD Biosciences, New Jersey, USA). Data were analyzed by Flowjo (version 10, BD).
(§3) Different cell lines were used for testing. KHYG-1 refers to the NK cell line harvested from the peripheral blood of a person with aggressive NK cell leukemia. This cell line could respond to IL-2 and IL-15 stimulation in-vitro [Yamasaki et al., Leuk Res., […]; 28 (10): 1023-31]. Ramos is a human Burkitts Lymphoma cell line (CRL-1596™) and could be used as a model for IL-4 and IL-21 studies [Hui et al., Front Immunol., 2022; 13: 919854]. Jurkat is a human T lymphoblast cell line (Clone E6-1, TIB-152™) and is widely used in the T cell studies of IL-9 function. HPB-ALL is a T cell leukemia model established from the peripheral blood of a child with ALL and thymoma at diagnosis in 1973 and could be used for IL-7 functional studies.

[4] = tested on: IL-21 induced STAT3 phosphorylation; assay: Inhibition of IL-21 induced STAT phosphorylation in Ramos B cell line, flow cytometry; details: ScFv 10 μg/ml
Text: as §1, §2, §3

[5] = tested on: IL-7 induced STAT5 phosphorylation; assay: Inhibition of IL-7 induced STAT5 phosphorylation in HPB-ALL T cell line, flow cytometry; details: ScFv 10 μg/ml
Text: as §1, §2, §3

[6] = tested on: IL-4 induced STAT6 phosphorylation; assay: Inhibition of IL-4 induced STAT phosphorylation in Ramos B cell line, flow cytometry; details: ScFv 10 μg/ml
Text: as §1, §2, §3

[7] = tested on: IL-9 induced STAT3 phosphorylation; assay: Inhibition of IL-9 induced STAT3 phosphorylation in Jurkat T cell line, flow cytometry; details: ScFv 10 μg/ml
Text: as §1, §2, §3

Ramos B cells = assay: WST-8 proliferation assay, IL-4/IL-21 rescue of anti-IgM induced cell death; details: chimeric antibodies; 33 nM; IL-4/IL-21 10 ng/ml; 48 hours
Description: The effects of anti-γc antibodies in blocking IL-4 and IL-21 rescues of Ramos cell death after anti-IgM induced hyperactivation were investigated by WST-8 proliferation assay. In brief, Ramos cells (50000 cells in 100 l) were seeded into 96-well plate and stabilized at 37° C. for an hour. Cells were pretreated in anti-γc antibodies or ritlecitinib for an hour, followed by incubation of IL-4 (10 ng/ml) or IL-21 (10 ng/ml) and anti-IgM (2 ug/ml, #109-006-129, Jackson ImmunoResearch). Aft er 48 hours, 10 μl WST-8 reagent (ab228554, Abcam) was added to each well and incubated for 4 hours.
WST-8 could be reduced by cellular dehydrogenases to an orange formazan product, which the amount of formazan produced is directly proportional to the number of living Ramos cells. Optical density (OD) of each well was measured by absorbance at 450 nm using Varioskan LUX Multimode Microplate Reader (ThermoFisher Scientific).

[8] = tested on: STAT phosphorylation induced by 6 γc cytokines; assay: Flow cytometry of p-STAT with full-length anti-γc antibodies in multiple cell lines; details: IL-2, IL-15 in KHYG-1; IL-4, IL-21 in Ramos; IL-7 in HPB-ALL; IL-9 in Jurkat; cytokines 10 ng/ml; 33 nM (5 μg/ml)
Description: Flow cytometry was employed to measure the percentage of p-STAT expressing cells after cytokine induction and anti-γc antibody treatment as previously described. IL-2 and IL-15 were tested in KHYG-1 NK cell line; IL-4 and IL-21 were tested in Ramos B cell line; IL-7 was tested in HPB-ALL T cell line; and IL-9 was tested in Jurkat T cell line.

Row | Molecule | suppression of IL-4 induced CD23 expression (CD23 expression) | suppression of IL-2 and IL-15 induced secretion of granzyme A and IFNγ ([1]; IL-2, IL-15 20 ng/ml, three days, 33 nM) | suppression of granzyme B secretion ([1]; IL-2 or IL-15, 33 nM, humanized antibodies) | suppression of IL-2, IL-15 and IL-21 induced granzyme A secretion (granzyme A secretion) | block of IL-4 protective effects, μ-H2AX re-induced [2] | p-STAT5 inhibition (%) [3] | p-STAT3 inhibition (%) [4] | p-STAT5 inhibition (%) [5] | p-STAT6 inhibition (%) [6] | p-STAT3 inhibition (%) [7] | block of IL-4 and IL-21 rescue of anti-IgM induced cell death (WST-8) (Ramos B cells) | block of STAT phosphorylation [8]
1 | C=CC(=O)N1C[C@H](Nc2ncnc3[nH]ccc23)CC[C@@H]1C [ritlecitinib] | significantly suppress IL-4 induced CD23 expression | significantly reduced | superior suppression to granzyme B secretion | significantly suppress IL-2, IL-15 and IL-21 induced granzyme A secretion | could block IL-4 protective effects | – | – | – | – | – | – | –
2 | B1 | – | – | – | – | – | 43.73% | 78.97% | 99.42% | 45.99% | 92.36% | could block the effects of IL-4 and IL-21 | barely demonstrated strong inhibitory effects
